The data set concerns ATP. The data set is described as follows: switch fluorescence ratio, 500 uM ATP over buffer (Cy3 cluster intensity, sum of 5 cycles each) (fold (ratio)); higher = stronger signal-on switching upon ATP binding; sequences stand for … in TCGTCGGCAGCGTCAGATGTGTATAAGAGACAGTTTTTTTTTTTTTTTTTTTTTTTTT…TC. The note with it: aptamer strand: ATP DNA aptamer (quencher-CACCTGGGGGAGTATTGCGGAGGAAGG + anchor), 100 nM annealed; ATP concentration: 500 uM. In short, it runs like this:
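Values give the fluorescence ratio for each switch-domain sequence, averaged from per-cluster ratios of summed target-cycle to summed buffer-cycle Cy3 intensity. The Cy3-labelled switching-strand clusters sat on a modified Illumina MiSeq flow-cell, were annealed to 100 nM quencher-labelled ATP aptamer, and were imaged in selection buffer, then after 15 min with 500 uM ATP at 22 °C. Five cycles ran with NaOH stripping and re-annealing between them, and clusters outside 100-1000 RFU were excluded.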

± gives the standard deviation of the averaged measurements.
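Also: ATP exposure 15 min at 22 °C before imaging.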

Turning to GGAGGTAAGG, the switch fluorescence ratio worked out at 0.973 ± 0.025.

Take ATTAGTCAGG: the switch fluorescence ratio worked out at 1.03 ± 0.019.

As to TCGAGGGGTA, the switch fluorescence ratio was determined as 1 ± 0.07.

As to TGCGCATCTA, the switch fluorescence ratio stood at 1.038 ± 0.0098.

As for AACGTATGTT, the switch fluorescence ratio amounted to 0.9895 ± 0.0028.

Consider TCCGATGAGG, for which the switch fluorescence ratio turned out to be 1.05 ± 0.074.

Take ATTAAGGCCC: the switch fluorescence ratio was 0.988 ± 0.044.

With GGGCAGGTTT, the switch fluorescence ratio was found to be 1.01 ± 0.014.

With AGCGGATTCG, the switch fluorescence ratio was found to be 0.969 ± 0.053.

With CATGTGTGGG, the switch fluorescence ratio amounted to 1.01 ± 0.029.

On to GTAGGGAAAG, for which the switch fluorescence ratio worked out at 1.009 ± 0.0087.

Regarding GGTTAATTGT, the switch fluorescence ratio was determined as 0.993 ± 0.033.

Regarding GGTATCAGGA, the switch fluorescence ratio stood at 0.978 ± 0.013.

As to CGGTCAAGAG, the switch fluorescence ratio turned out to be 1.11 ± 0.019.

For the sequence TAATTTAATA, the switch fluorescence ratio is 1.02 ± 0.011.

Take CGGCTAAAGA: the switch fluorescence ratio turned out to be 0.976 ± 0.011.

Turning to TAAGTTAGTC, the switch fluorescence ratio worked out at 1.02 ± 0.012.

In the case of TTTGGGGCAG, the switch fluorescence ratio was determined as 1.06 ± 0.078.

Take TACGGGCATA: the switch fluorescence ratio was found to be 1.1 ± 0.049.

Turning to CCGCTGGATA, the switch fluorescence ratio amounted to 1.51 ± 0.18.

Take ATTGGGTCGG: the switch fluorescence ratio was found to be 0.996 ± 0.02.

In the case of GCATTGGGTG, the switch fluorescence ratio was 1.11 ± 0.054.

With CTTGATTTGT, the switch fluorescence ratio stood at 1.01 ± 0.036.

For the sequence TTGGGGCAGT, the switch fluorescence ratio came to 0.997 ± 0.035.

For the sequence CAACGTTTTG, the switch fluorescence ratio is 0.977 ± 0.023.

Take TATCTTTAAC: the switch fluorescence ratio is 1.03 ± 0.024.

On to TTTTGAGACT, for which the switch fluorescence ratio stood at 0.96 ± 0.0084.

As for TAGTTTTAAA, the switch fluorescence ratio was found to be 1.02 ± 0.044.

As for GGGTATGGCT, the switch fluorescence ratio is 1.02 ± 0.018.

Regarding ATCTAGGTAT, the switch fluorescence ratio was determined as 1 ± 0.029.

GAAGGAAGTT: the switch fluorescence ratio was determined as 1.01 ± 0.041.

With AAAATTGTCT, the switch fluorescence ratio was 0.981 ± 0.023.

With CGGGTATTCG, the switch fluorescence ratio came to 0.99 ± 0.03.

Regarding GTGGCAGGTG, the switch fluorescence ratio came out at 2.53 ± 0.053.

CGGAGGGTAC: the switch fluorescence ratio came out at 1.61 ± 0.08.

On to CCGGCACCTG, for which the switch fluorescence ratio stood at 1.02 ± 0.025.

For the sequence TGCTAGACTG, the switch fluorescence ratio is 1.03 ± 0.09.

Turning to GACGAGCGGG, the switch fluorescence ratio came out at 1 ± 0.025.

As to GATGGTGAGA, the switch fluorescence ratio came out at 1.02 ± 0.065.

For TCATTAGGAA, the switch fluorescence ratio is 1 ± 0.035.

As to ACATGGTAGT, the switch fluorescence ratio stood at 0.97 ± 0.041.

As to TTTGTTTGAA, the switch fluorescence ratio worked out at 0.962 ± 0.023.

Take TGCTGTGTTT: the switch fluorescence ratio came to 1.02 ± 0.039.

Turning to GAATCTTAGG, the switch fluorescence ratio is 1.03 ± 0.024.

For TATATGGCGT, the switch fluorescence ratio was found to be 0.989 ± 0.019.

As to ATAAAAAACT, the switch fluorescence ratio is 0.984 ± 0.01.

As to ATCGGAACCT, the switch fluorescence ratio turned out to be 2.15 ± 0.1.

With ATTCTACGGC, the switch fluorescence ratio amounted to 1.06 ± 0.073.

Consider TAAAAGGGTA, for which the switch fluorescence ratio amounted to 1 ± 0.019.

On to CGGTAACCGG, for which the switch fluorescence ratio came to 0.979 ± 0.0098.

With TGTGTGATAC, the switch fluorescence ratio was 1.549 ± 0.0055.

Turning to TTGGGGTGCC, the switch fluorescence ratio was 1.01 ± 0.018.

For the sequence GGTTAAGCGG, the switch fluorescence ratio was found to be 0.972 ± 0.021.

As for TAAAATGTTC, the switch fluorescence ratio was 0.988 ± 0.048.

Take ATCGGGGCAC: the switch fluorescence ratio amounted to 1.1 ± 0.11.

Turning to AGTAAAGCGG, the switch fluorescence ratio amounted to 1 ± 0.027.

Regarding CTAATAGGAG, the switch fluorescence ratio was 1.004 ± 0.0025.

For GTGTGGGT, the switch fluorescence ratio was 1.002 ± 0.0028.

Turning to TAGGCCCCTG, the switch fluorescence ratio amounted to 0.985 ± 0.041.

Consider CGGGGTTTGC, for which the switch fluorescence ratio was determined as 0.997 ± 0.015.

For GGGAGTGTAA, the switch fluorescence ratio turned out to be 1 ± 0.033.

As to CGTGCAGTTC, the switch fluorescence ratio was determined as 1.15 ± 0.036.

On to AAGATGTTTG, for which the switch fluorescence ratio came out at 0.975 ± 0.021.

For the sequence AAATACGCTC, the switch fluorescence ratio is 1.25 ± 0.2.

GAAGTAGAAA: the switch fluorescence ratio amounted to 0.9958 ± 0.0016.

As for TTTGTTCCAG, the switch fluorescence ratio came to 1.01 ± 0.06.

Turning to ACCATTGTGA, the switch fluorescence ratio worked out at 0.998 ± 0.014.

Turning to GCGGAAGGAG, the switch fluorescence ratio came out at 1 ± 0.016.

Turning to TGCCCTATTT, the switch fluorescence ratio was determined as 0.986 ± 0.025.

For TGGAGAGGTG, the switch fluorescence ratio came out at 1.02 ± 0.083.

Regarding TATTGGAGGT, the switch fluorescence ratio was found to be 0.981 ± 0.021.

Consider TCTCAAGTGC, for which the switch fluorescence ratio is 1.118 ± 0.0083.

TCGGGGATAG: the switch fluorescence ratio was 0.979 ± 0.047.

For AGTTGAATTT, the switch fluorescence ratio amounted to 0.9885 ± 0.0016.

For TTCCAAGACA, the switch fluorescence ratio is 1.01 ± 0.026.

As for GAATATACTG, the switch fluorescence ratio turned out to be 1.05 ± 0.029.

Regarding TGAAGCATCC, the switch fluorescence ratio was determined as 1.822 ± 0.0073.

On to GGTATGGGTG, for which the switch fluorescence ratio amounted to 1.023 ± 0.0055.

Regarding GTAAAAATGG, the switch fluorescence ratio came to 1.05 ± 0.12.

Turning to CGGAGATGGC, the switch fluorescence ratio turned out to be 1.05 ± 0.038.

For the sequence GAGTAGGAGC, the switch fluorescence ratio was found to be 1.02 ± 0.033.

Turning to CGATTGGGGC, the switch fluorescence ratio was 0.992 ± 0.013.

Consider ATTTTGTCCT, for which the switch fluorescence ratio worked out at 1.08 ± 0.11.

As to CTTAGGGCTC, the switch fluorescence ratio was determined as 1.026 ± 0.0042.

As to CATCTGGGCA, the switch fluorescence ratio was 1.03 ± 0.013.

In the case of ACGAGCCATG, the switch fluorescence ratio is 1.1 ± 0.015.

Regarding TTTGTATTGC, the switch fluorescence ratio was determined as 1.01 ± 0.025.

As to TGCTATGAGG, the switch fluorescence ratio worked out at 1.01 ± 0.043.

Take CCGGTCTTGA: the switch fluorescence ratio amounted to 1.01 ± 0.039.

In the case of ATCTTTAGTA, the switch fluorescence ratio amounted to 1 ± 0.014.

As to CCACTCCGGG, the switch fluorescence ratio worked out at 1.192 ± 0.0055.

With AAATATATAT, the switch fluorescence ratio is 0.994 ± 0.044.

As to GATGGGTTGA, the switch fluorescence ratio was found to be 1.06 ± 0.03.

With ATTAAATCAG, the switch fluorescence ratio turned out to be 1.013 ± 0.0058.

Consider GATTCAGCGG, for which the switch fluorescence ratio amounted to 0.97 ± 0.015.

As for CCTCTGGGGG, the switch fluorescence ratio came out at 1.32 ± 0.19.

In the case of TAAAACGCTC, the switch fluorescence ratio turned out to be 1.07 ± 0.073.

On to ATGTAAATGC, for which the switch fluorescence ratio stood at 0.995 ± 0.02.

In the case of TTTGGGGTGT, the switch fluorescence ratio turned out to be 1.01 ± 0.06.

As for CGGAGGCGGT, the switch fluorescence ratio came to 1.02 ± 0.047.

CCGGGGGTTC: the switch fluorescence ratio was 1.05 ± 0.062.

As to TTTATAGGTT, the switch fluorescence ratio amounted to 1.02 ± 0.069.

Take CAGGGGGTAG: the switch fluorescence ratio stood at 1.01 ± 0.027.

For the sequence GATATATGCA, the switch fluorescence ratio was found to be 0.997 ± 0.028.

Regarding CAGCGAACGG, the switch fluorescence ratio turned out to be 1.02 ± 0.026.

Consider ACTGTAGTTT, for which the switch fluorescence ratio was determined as 1.11 ± 0.07.

Take AAATGAAAGT: the switch fluorescence ratio was found to be 0.995 ± 0.015.

Turning to TCAGGACTCG, the switch fluorescence ratio was found to be 0.982 ± 0.035.

For TAGCTTTTAT, the switch fluorescence ratio is 0.996 ± 0.032.

Consider TTGTTTTCGC, for which the switch fluorescence ratio is 1.04 ± 0.046.

Take TCTAAGGGA: the switch fluorescence ratio turned out to be 1.01 ± 0.018.

Take CGTTATGTTC: the switch fluorescence ratio turned out to be 0.9772 ± 0.0031.

On to CTTGGGTTCT, for which the switch fluorescence ratio came to 1 ± 0.012.

With GGGTGGTAGA, the switch fluorescence ratio was found to be 1.01 ± 0.04.

As to CTTCCGGGGT, the switch fluorescence ratio was 1.68 ± 0.1.

For CTCTTAAGGG, the switch fluorescence ratio is 1.01 ± 0.018.

As for TTCTCAGGGG, the switch fluorescence ratio came out at 1.12 ± 0.038.

In the case of CGTTAAGCTT, the switch fluorescence ratio amounted to 1.03 ± 0.014.

Take ACGAGGTGGG: the switch fluorescence ratio is 0.987 ± 0.017.

Turning to AGTCTTGGGG, the switch fluorescence ratio was 0.977 ± 0.019.

The values above are taken from the supplement of paper PMC10126150.
